Measurements published in PMC9136605 (Acta Pharmaceutica Sinica. B, 2021).

Target: the molecule itself
Experiment: crystal structure

B1: human LDHC L56E/I332Q double mutant (LDHC-mutant), recombinant with C-terminal His6-tag (enzyme)
chain: not shown
stoichiometry N: 4
